In paper PMC12678272:

What was measured:
[1] = target: GST-RILP-L2 (RILP-Like 2, mouse) (mouse) (UniProt Q99LE1); assay: pull-down; 20 ug GST fusion protein immobilised on glutathione agarose beads, incubated 18 h at 4 C with 500 ug RAW264.7 macrophage lysate (untreated or treated with GSK2578215A); 50 mM HEPES pH 7.4, 150 mM NaCl, 1 mM MgCl2, 1% Triton X-100, phosphatase inhibitors; immunoblot, quantified as percent of total input
[2] = target: GST-RILP-L1 (RILP-Like 1, mouse) (mouse) (UniProt Q9JJC6); assay: as above
[3] = target: GST-RILP-L2 (RILP-Like 2, mouse) (mouse) (UniProt Q99LE1); assay: pull-down; 20 ug GST fusion protein immobilised on glutathione agarose beads, incubated 18 h at 4 C with 500 ug RBL cell lysate (untreated, Ion/TPA-activated, or Ion/TPA with LY333531); 50 mM HEPES pH 7.4, 150 mM NaCl, 1 mM MgCl2, 1% Triton X-100, phosphatase inhibitors; immunoblot, quantified as percent of total input
[4] = target: GST-RILP-L1 (RILP-Like 1, mouse) (mouse) (UniProt Q9JJC6); assay: as above

Chain of UniProt Q99LE1 (Q99LE1 whole entry, the tested form may be a part): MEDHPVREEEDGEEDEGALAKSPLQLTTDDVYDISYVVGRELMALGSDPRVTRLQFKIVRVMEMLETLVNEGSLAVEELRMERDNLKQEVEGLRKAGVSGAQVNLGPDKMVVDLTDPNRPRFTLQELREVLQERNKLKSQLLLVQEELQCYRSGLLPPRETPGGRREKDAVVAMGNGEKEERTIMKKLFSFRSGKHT
Chain of UniProt Q9JJC6 (Q9JJC6 whole entry, the tested form may be a part): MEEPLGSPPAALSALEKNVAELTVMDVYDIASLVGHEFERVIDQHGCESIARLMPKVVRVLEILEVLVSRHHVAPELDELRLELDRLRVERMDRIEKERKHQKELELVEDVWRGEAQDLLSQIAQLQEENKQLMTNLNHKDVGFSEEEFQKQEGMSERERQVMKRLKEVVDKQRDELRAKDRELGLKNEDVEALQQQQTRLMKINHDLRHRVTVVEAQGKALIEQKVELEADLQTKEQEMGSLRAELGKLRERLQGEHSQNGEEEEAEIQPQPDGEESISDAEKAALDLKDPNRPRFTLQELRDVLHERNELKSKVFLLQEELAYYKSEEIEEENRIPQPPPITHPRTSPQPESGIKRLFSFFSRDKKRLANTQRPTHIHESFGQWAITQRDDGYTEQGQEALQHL

Substance: Rab12 (endogenous, RAW264.7 macrophages) (from UniProt P35283 1-291) (natural protein)
- percent reduction of pull-down after GSK2578215A, against untreated cells [1]: 80%
- percent reduction of pull-down after GSK2578215A, against untreated cells [2]: 50%

Substance: Rab12 (endogenous, RBL-2H3 cells) (from UniProt P35284 1-291) (natural protein)
- percent of total input pulled down [3]: 4%
- percent reduction of pull-down after LY333531, against Ion/TPA alone [3]: 90%
- percent of total input pulled down [4]: 14%
- percent reduction of pull-down after LY333531, against Ion/TPA alone [4]: 60%

Substance: phosphoRab12 (endogenous, Ion/TPA-activated RBL-2H3 cells) (from UniProt P35284 1-291) (natural protein)
- percent of total input pulled down [3]: 18%
- percent of total input pulled down [4]: 38%
